B1: TPR t1 (parent)
chain: GACCAAUCUGCCCUCAGAGCUCGAGAACAUCUUCGGAUGCAGAGGAGGCAGGCUUCGGUGGCGCGAUAGCGCCAACGUCCUCAACCUCCAAUGCAUCCCACCACAUGAUGAUGCCUGAAGAGCCUUGGUUUUUUG

Variants of: B1
Test: polymerase ribozyme fitness, log enrichment relative to wild type (log ratio); higher = more active; in vitro selection for triplet polymerase activity
Method in brief: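 PCR was used to build mutant libraries for each subunit of a heterodimeric triplet polymerase ribozyme, which were then transcribed. A single in vitro selection round, in triplicate, used a frozen incubation at −7 °C and recovered extended constructs by gel excision, streptavidin beads and RT-PCR. Fitness is the logarithm of genotype enrichment relative to wild-type enrichment, averaged over replicates with inverse-variance weights. The logarithm is base 2, and after Illumina sequencing only genotypes with ≥10 input reads and ≥1 read per output were kept.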

For U59A U81A G107A C114U, which “polymerase ribozyme fitness (log ratio)” value is on record?
Its value is -2.96.

With G57U C72U U109A C114G as the variant, how does the “polymerase ribozyme fitness (log ratio)” value read?
Its value is -5.21.

With G57C C64A C124U as the variant, how does the “polymerase ribozyme fitness (log ratio)” value read?
The value was -6.08.

For U59G G113A A121U C123A, which “polymerase ribozyme fitness (log ratio)” value is on record?
The value was -1.97.

With G57A A103C G120C C124A as the variant, how does the “polymerase ribozyme fitness (log ratio)” value read?
Its value is -4.81.

With U59C C97U C114G as the variant, how does the “polymerase ribozyme fitness (log ratio)” value read?
The value was -4.47.

With G58A C72G G127A as the variant, how does the “polymerase ribozyme fitness (log ratio)” value read?
Its value is -1.35.

With U59C U81C U106A as the variant, how does the “polymerase ribozyme fitness (log ratio)” value read?
The value was -0.294.

With U59A G113U as the variant, how does the “polymerase ribozyme fitness (log ratio)” value read?
Its value is -2.9.

For G58U A75U C79A C89A G120C C123U, which “polymerase ribozyme fitness (log ratio)” value is on record?
Its value is -4.72.

For C56U G122U, which “polymerase ribozyme fitness (log ratio)” value is on record?
Its value is -0.129.

Which “polymerase ribozyme fitness (log ratio)” value does the source give for G57A G58A here?
Its value is -0.357.

With U59G C97A as the variant, how does the “polymerase ribozyme fitness (log ratio)” value read?
The value was -4.8.

With U59G C72U U106G U112A G128C as the variant, how does the “polymerase ribozyme fitness (log ratio)” value read?
The value was -4.15.

Which “polymerase ribozyme fitness (log ratio)” value does the source give for U59G C85U U87A U106A here?
Its value is -0.914.

Which “polymerase ribozyme fitness (log ratio)” value does the source give for U59G A66C C101G A121C U132C here?
The value was -2.35.

For G58A G61U, which “polymerase ribozyme fitness (log ratio)” value is on record?
The value was -0.422.

With G60A A74G as the variant, how does the “polymerase ribozyme fitness (log ratio)” value read?
Its value is -2.01.

For U59C C88U, which “polymerase ribozyme fitness (log ratio)” value is on record?
Its value is -0.959.

For G57U U87A C89G C104U, which “polymerase ribozyme fitness (log ratio)” value is on record?
Its value is -4.28.

With U59A C104A G110U C115A as the variant, how does the “polymerase ribozyme fitness (log ratio)” value read?
The value was -4.57.

For G58A A91C C101A C123G, which “polymerase ribozyme fitness (log ratio)” value is on record?
The value was -1.04.

Which “polymerase ribozyme fitness (log ratio)” value does the source give for U59A U92C here?
Its value is -1.76.

With G57A C89U U130C as the variant, how does the “polymerase ribozyme fitness (log ratio)” value read?
The value was -0.888.

With G57A C97U as the variant, how does the “polymerase ribozyme fitness (log ratio)” value read?
Its value is -1.83.

With U59A C62U as the variant, how does the “polymerase ribozyme fitness (log ratio)” value read?
Its value is 0.252.

Which “polymerase ribozyme fitness (log ratio)” value does the source give for C56U U81G U112G C124G here?
The value was -0.448.

For G58C G63C C82A U106G G113U, which “polymerase ribozyme fitness (log ratio)” value is on record?
Its value is -5.77.

For G58C U81A C123A, which “polymerase ribozyme fitness (log ratio)” value is on record?
The value was -0.0338.

Which “polymerase ribozyme fitness (log ratio)” value does the source give for U59A A105G G113A U130C G135U here?
The value was -5.1.

With G58C U112C A121G as the variant, how does the “polymerase ribozyme fitness (log ratio)” value read?
Its value is 1.44.

Which “polymerase ribozyme fitness (log ratio)” value does the source give for U59A C62G U87A U129C U130G here?
The value was -4.15.

With C56U U132C as the variant, how does the “polymerase ribozyme fitness (log ratio)” value read?
Its value is -0.156.

With G57C C104U G110C U131A as the variant, how does the “polymerase ribozyme fitness (log ratio)” value read?
The value was -4.01.

With G57A A90C C104A G113C G117C as the variant, how does the “polymerase ribozyme fitness (log ratio)” value read?
The value was -6.59.

With U59A U96A as the variant, how does the “polymerase ribozyme fitness (log ratio)” value read?
Its value is -1.66.

For G57A G107A, which “polymerase ribozyme fitness (log ratio)” value is on record?
Its value is -6.98.

With G57C C82U as the variant, how does the “polymerase ribozyme fitness (log ratio)” value read?
The value was 0.151.

For G57C G93U A111U G113C C114A C115U U125A, which “polymerase ribozyme fitness (log ratio)” value is on record?
Its value is -7.73.

With C56U U112C as the variant, how does the “polymerase ribozyme fitness (log ratio)” value read?
Its value is 0.364.

Which “polymerase ribozyme fitness (log ratio)” value does the source give for C56U U112A here?
The value was 1.66.

Which “polymerase ribozyme fitness (log ratio)” value does the source give for G60A A66U A111C here?
Its value is -2.41.

For G57U C82A C123U, which “polymerase ribozyme fitness (log ratio)” value is on record?
The value was 0.32.

Which “polymerase ribozyme fitness (log ratio)” value does the source give for G58C A66G here?
The value was -0.999.

Which “polymerase ribozyme fitness (log ratio)” value does the source give for G58A C89G here?
The value was -2.2.

With G57U G60A C80U G122U as the variant, how does the “polymerase ribozyme fitness (log ratio)” value read?
The value was -2.06.

Which “polymerase ribozyme fitness (log ratio)” value does the source give for U59A G71A C101U C124A here?
Its value is 1.02.

For C56U U112C A118C, which “polymerase ribozyme fitness (log ratio)” value is on record?
The value was 1.53.

For C56U U109A, which “polymerase ribozyme fitness (log ratio)” value is on record?
Its value is -5.25.

With U59A A105C U112C as the variant, how does the “polymerase ribozyme fitness (log ratio)” value read?
Its value is -0.41.

For C56U U106C G120A, which “polymerase ribozyme fitness (log ratio)” value is on record?
The value was 0.203.

For G57U C89U, which “polymerase ribozyme fitness (log ratio)” value is on record?
Its value is -0.78.

For G57U C62A U125A, which “polymerase ribozyme fitness (log ratio)” value is on record?
The value was -4.41.

Which “polymerase ribozyme fitness (log ratio)” value does the source give for C56U U78A here?
Its value is -0.32.

For G57C G61A, which “polymerase ribozyme fitness (log ratio)” value is on record?
Its value is -1.82.

For G58C C80A U96G, which “polymerase ribozyme fitness (log ratio)” value is on record?
The value was -4.46.

For G58U G63A C94U, which “polymerase ribozyme fitness (log ratio)” value is on record?
Its value is -0.678.

With U59A C70U U112A as the variant, how does the “polymerase ribozyme fitness (log ratio)” value read?
The value was 0.172.

With G58U C115A as the variant, how does the “polymerase ribozyme fitness (log ratio)” value read?
The value was -0.324.

With C56U G117C as the variant, how does the “polymerase ribozyme fitness (log ratio)” value read?
The value was -3.64.

For G57A C88U U112G, which “polymerase ribozyme fitness (log ratio)” value is on record?
The value was -2.79.

For U59C A111C G128C, which “polymerase ribozyme fitness (log ratio)” value is on record?
Its value is -3.24.

With G57C U78C as the variant, how does the “polymerase ribozyme fitness (log ratio)” value read?
The value was 0.0872.

With G58A C99U as the variant, how does the “polymerase ribozyme fitness (log ratio)” value read?
The value was -2.8.

With U59A A95G U125G as the variant, how does the “polymerase ribozyme fitness (log ratio)” value read?
The value was -0.633.

For U59G C101G C114U, which “polymerase ribozyme fitness (log ratio)” value is on record?
The value was -2.59.

Which “polymerase ribozyme fitness (log ratio)” value does the source give for G57A U59G here?
The value was -0.399.

Which “polymerase ribozyme fitness (log ratio)” value does the source give for G58C C73A U81A C89A here?
Its value is -3.31.

For G57U G107U, which “polymerase ribozyme fitness (log ratio)” value is on record?
Its value is -5.11.

Which “polymerase ribozyme fitness (log ratio)” value does the source give for U59A C82G here?
The value was -0.809.

With U59A C82U as the variant, how does the “polymerase ribozyme fitness (log ratio)” value read?
The value was -0.407.

With G57C C89G A90G as the variant, how does the “polymerase ribozyme fitness (log ratio)” value read?
Its value is -1.31.

For C56U U116G C123U, which “polymerase ribozyme fitness (log ratio)” value is on record?
Its value is -1.77.

With G57A G113C U133A as the variant, how does the “polymerase ribozyme fitness (log ratio)” value read?
The value was -3.86.

With G58A C64U A66U U130A as the variant, how does the “polymerase ribozyme fitness (log ratio)” value read?
Its value is -2.13.

With C56U U87C C94U A95C G113A as the variant, how does the “polymerase ribozyme fitness (log ratio)” value read?
The value was -2.65.

Which “polymerase ribozyme fitness (log ratio)” value does the source give for G58U U106C C124U U130A here?
The value was -0.269.

With G58C G71U C101G U112C U129G as the variant, how does the “polymerase ribozyme fitness (log ratio)” value read?
Its value is -0.74.

With G58C U109A C114U as the variant, how does the “polymerase ribozyme fitness (log ratio)” value read?
The value was -5.23.

For G58C C123G, which “polymerase ribozyme fitness (log ratio)” value is on record?
The value was 1.75.

For C56U G120U C124A, which “polymerase ribozyme fitness (log ratio)” value is on record?
Its value is 1.41.

For G58C C62U U133A, which “polymerase ribozyme fitness (log ratio)” value is on record?
Its value is -0.0723.

For U59G U96A G128A, which “polymerase ribozyme fitness (log ratio)” value is on record?
The value was -2.77.

— the RNAGym collection of RNA variant scans (doi:10.1073/pnas.2313332121)
